Measured values as given in patent US8470556B2, “Nucleic acids that encode antigen binding proteins that bind PAR-2” (Amgen Inc., priority 2007, dated 2013).

What was measured:
[1] = target: T1, N-terminal PAR-2/Fc (full length and truncated) (Homo sapiens, UniProt P55085); experiment: Western blot, binding to uncleaved versus clipped N-terminal PAR-2/Fc; conditions: upstream binder binds only full-length PAR-2/Fc
T1 construct: made in house; host or cells: CHO cells (10% FCS for uncleaved; serum-free for clipped)
T1 sequence (P55085 with tags, fused parts or gaps limits assumed): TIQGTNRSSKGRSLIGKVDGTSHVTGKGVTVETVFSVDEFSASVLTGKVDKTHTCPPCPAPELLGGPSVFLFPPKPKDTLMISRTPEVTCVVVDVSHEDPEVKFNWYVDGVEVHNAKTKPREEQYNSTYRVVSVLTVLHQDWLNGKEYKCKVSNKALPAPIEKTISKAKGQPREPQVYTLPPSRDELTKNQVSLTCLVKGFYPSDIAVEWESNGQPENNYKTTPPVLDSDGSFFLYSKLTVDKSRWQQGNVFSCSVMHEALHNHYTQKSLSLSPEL
Description: N-terminal PAR-2/Fc polypeptide (SEQ ID NO:6) is expressed in suitable mammalian cells such as CHO cells. Expression supernatant from CHO expression cells cultured in serum-free media contain a CHO cell trypsin-like serine protease that cleaves PAR-2/Fc at the activation Arg-Ser bond, generating the “clipped” version of the PAR-2/Fc polypeptide. CHO expression cells cultured in 10% fetal calf serum (which contains normal levels of plasma proteinase inhibitors at concentrations far in excess of the concentration of the CHO cell trypsin-like serine protease) express uncleaved N-terminal PAR-2/Fc in culture supernatants. Both clipped and uncleaved proteins are purified using methods that are suitable for isolation and purification of proteins comprising an Fc regions (for example, using a MabSelect™ resin systems, from GE Healthcare, Piscataway, N.J.)). The resultant purified Fc-constructs are analyzed by amino terminal sequence analysis (Edman degradation), size exclusion chromatrography, absorbance spectral scan, and mass spectroscopy, as needed.
To analyze binding to uncleaved versus cleaved PAR-2, various amounts of purified uncleaved and clipped N-terminal PAR2-Fc are subjected to SDS-PAGE using 8-16% polyacrylamide gradient gels (Novex gels, Invitrogen Life Technologies) in a Tris-Glycine buffer system. Gel lanes containing See Blue standards (Novex, Invitrogen Life Technologies) for molecular weight identification are also included. Following electrophoresis, proteins are transferred from gels onto nitrocellulose membranes using a Novex XCell II Blot Module (Invitrogen Life Technologies). Membranes are blocked with 1:1, Odyssey blocking buffer, OBB, (LI-COR Biosciences):TBS (Tris Buffer Saline) overnight at 4 C with shaking. Antibodies to be analyzed are diluted in 1:1 OBB:TBS at a desired final concentration for 1 hr at room temperature. Membranes are washed extensively with 0.1% Tween 20 in TBS (3-4 changes of 100 ml over ˜1 hr). Membranes are then exposed to the appropriate secondary antibody-Alexa680 (Molecular Probes, Invitrogen Life Technologies) conjugate (goat anti-rabbit IgG, or goat anti-mouse IgG) diluted 1:5000 in 1:1 (OBB:TBS) for 1 hr at room temperature. Membranes are washed as described above, and if desired, analyzed using a LI-COR Odyssey Infrared Imaging System (LI-COR Biosciences).
Several PAR-2 antibodies were tested in different assay formats; Table 2 summarizes the results. IC50 values were determined in a FLIPR assay for Ca2+ mobilization described previously; binding to the upstream region of the cleavage site versus the downstream region of the cleavage site was determined using the Western blot assay described previously.

[2] = target: T2, cell surface expressed human PAR-2 (Homo sapiens, UniProt P55085); experiment: KinExA binding to cell surface expressed PAR-2; conditions: initial analysis, 95% confidence interval of 1.36 to 5.47 nM, N=2 experiments
T2 construct: expressed in transfected cells; host or cells: CHO cells
T2 sequence (P55085 26-397): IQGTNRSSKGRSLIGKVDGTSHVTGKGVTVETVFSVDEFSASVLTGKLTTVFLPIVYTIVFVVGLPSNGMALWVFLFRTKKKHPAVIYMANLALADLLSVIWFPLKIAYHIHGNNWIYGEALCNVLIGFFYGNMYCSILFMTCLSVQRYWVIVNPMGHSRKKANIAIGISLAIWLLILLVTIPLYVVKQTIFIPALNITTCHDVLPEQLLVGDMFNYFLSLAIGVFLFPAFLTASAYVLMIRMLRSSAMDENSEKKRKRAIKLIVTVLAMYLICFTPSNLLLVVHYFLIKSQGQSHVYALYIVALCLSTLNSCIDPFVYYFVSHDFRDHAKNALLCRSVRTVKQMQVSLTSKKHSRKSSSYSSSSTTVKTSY
Description: This example describes the analysis of the binding properties of PAR-2 antigen-binding proteins to cell surface expressed PAR-2 utilizing a Kinetic Exclusion Assay which measures binding events in solution phase and can be used to calculate KD, Kon and Koff (KinExA®; Sapidyne Instruments, Boise, Id.), substantially as described previously by Xie et. al. J. Imm, Methods 304:1 (2005) and Rathanaswami et. al. Anal. Biochem. 373:52 (2008). Briefly, serial dilutions of cells expressing human PAR-2 (for example, CHO transfectants expressing human PAR-2 at the cell surface, obtainable by transfecting CHO cells with human full length PAR-2 cDNA encoding a polypeptide of SEQ ID NO:2) and control cells (i.e., non-transfected CHO cells) in a modified DMEM medium (phenol red free containing 10% heat inactivated FBS, 0.1 mM MEM non-essential amino acids, 1 mM sodium pyruvate, penicillin-streptomycin-glutamine, and 0.025% (w/w) sodium azide) are incubated with set amounts of antibody for 24 to 36 hours at 4 C with rotation. […] The free mAb is measured by KinExA® using the appropriate capture beads and Cy5-conjugated anti-human secondary antibodies, as described by Rathanaswami et al. Biochem Biophys Research Commun: 1004 (2005). […]
The KD of certain PAR-2 antibodies was determined in this manner.

Binding to Cleavage Site Up stream [1]: xxx
Kd [2]: 3.39 nM
B1: 1B5: anti-PAR-2 monoclonal antibody; heavy SEQ ID NO: 13, light SEQ ID NO: 15 (antibody, listed as Homo sapiens)
heavy: EVQLVQSGAEVKKSGESLKISCKGSGYSFSNYWIGWVRQMPGKGLEWMGIIYPGDSDTRYSPSFQGQVTISADKSIRTAYLQWSSLKASDTAMYYCARHKGITGTTFYYDYGMDVWGQGTTVTVSS
light: SYELTQPPSVSVSPGQTARITCSGEALPKQYASWYQQKPGQAPVLVIYRDTERPSGIPERFSGSSSGTTVTLTISGVQAEDEADYYCQSADSNGAYVFGTGTRVTVL
